Measured values as given in publication PMC12142464, “High-light-inducible proteins control associations between chlorophyll synthase and the Photosystem II biogenesis factor Ycf39” (Plant Physiology, 2025).
Where “and” joins values, the source holds several entries; their conditions need not be identical. Equal entries are not always repeated.

T1: 3xFLAG-tagged chlorophyll synthase ChlG (Synechocystis sp. PCC 6803, UniProt Q55145 1-324)
T1 construct: Chlorophyll synthase ChlG, Synechocystis sp; PCC 6803, made instead of the native enzyme; Isolated complexes carry chlorophyll and carotenoids; also called f.ChlG; FLAG-tagged ChlG
T1 sequence (looked up): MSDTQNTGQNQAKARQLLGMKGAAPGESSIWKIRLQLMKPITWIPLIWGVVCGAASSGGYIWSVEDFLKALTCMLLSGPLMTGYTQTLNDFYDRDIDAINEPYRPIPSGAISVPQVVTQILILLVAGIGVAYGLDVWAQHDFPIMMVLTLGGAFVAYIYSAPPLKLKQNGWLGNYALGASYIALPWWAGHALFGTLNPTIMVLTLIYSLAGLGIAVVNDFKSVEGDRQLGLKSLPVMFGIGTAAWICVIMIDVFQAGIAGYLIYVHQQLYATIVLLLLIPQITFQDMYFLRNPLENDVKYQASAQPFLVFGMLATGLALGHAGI

B1: High-light-inducible protein C (native) (natural protein, UniProt P73563 1-47, looked up)
chain: MNNENSKFGFTAFAENWNGRLAMIGFSSALILELVSGQGVLHFFGIL
notes: High-light-inducible protein HliC (5.2 kDa), Synechocystis sp; PCC 6803; also called HliC; ScpB; source: endogenous, Synechocystis solubilised membranes (high light)
B2: High-light-inducible protein D (native) (natural protein, UniProt P72932 1-57, looked up)
chain: MSEELQPNQTPVQEDPKFGFNNYAEKLNGRAAMVGFLLILVIEYFTNQGVLAWLGLR
notes: High-light-inducible protein HliD (6.5 kDa), Synechocystis sp; PCC 6803; also called HliD; ScpE; source: endogenous, Synechocystis solubilised membranes

Tests used:
Settings in all cases: partners not purified
[1] = biological target: B2; assay: co-IP; f.ChlG isolated with anti-FLAG resin from membranes solubilised with 1% n-dodecyl-β-D-maltoside and 1% glycol-diosgenin; eluate resolved by 2D CN (A8-35 amphipol)/SDS-PAGE, CBB stain; strains f.chlG/ΔchlG (HL 2 h), f.chlG/ΔchlG/ΔhliC (HL 2 h), f.chlG/ΔchlG/ΔhliC/Δycf39 (NL)
[2] = biological target: T1, 3xFLAG-tagged chlorophyll synthase ChlG; assay: affinity purification with mass spectrometry; f.ChlG anti-FLAG pulldown from f.chlG/ΔchlG cells, HL 16 h; quantitative MS with ^15N-labeled internal standard
[3] = biological target: T1, 3xFLAG-tagged chlorophyll synthase ChlG; assay: affinity purification with mass spectrometry; f.ChlG anti-FLAG pulldown from f.chlG/ΔchlG cells grown under NL; quantitative MS with ^15N-labeled internal standard
[4] = biological target: T1, 3xFLAG-tagged chlorophyll synthase ChlG; assay: affinity purification with mass spectrometry; f.ChlG anti-FLAG pulldown from f.chlG/ΔchlG/ΔhliC cells, HL 16 h; quantitative MS with ^15N-labeled internal standard
[5] = biological target: T1, 3xFLAG-tagged chlorophyll synthase ChlG; assay: affinity purification with mass spectrometry; f.ChlG anti-FLAG pulldown from f.chlG/ΔchlG/ΔhliC cells grown under NL; quantitative MS with ^15N-labeled internal standard
[6] = biological target: T1, 3xFLAG-tagged chlorophyll synthase ChlG; assay: co-IP; f.ChlG isolated with anti-FLAG resin from membranes solubilised with 1% n-dodecyl-β-D-maltoside and 1% glycol-diosgenin; eluate resolved by 2D CN (A8-35 amphipol)/SDS-PAGE, CBB stain; strains f.chlG/ΔchlG (HL 2 h), f.chlG/ΔchlG/ΔhliC (HL 2 h), f.chlG/ΔchlG/ΔhliC/Δycf39 (NL)

stoichiometry N [1] [HliC per HliD] | stoichiometry N [2] [per 1 ChlG] | stoichiometry N [3] [per 1 ChlG] | stoichiometry N [4] [per 1 ChlG] | stoichiometry N [5] [per 1 ChlG] | Binder | stoichiometry N [6]
~1 |  |  |  |  | B1 | 
 | 1.12 | 1.54 | 1.51 | 1.47 | B2 | ~1 HliD per f.ChlG (G-D2-G complex) and ~2 HliD per f.ChlG (G-D2 complex)
